In patent US20210147523A1 (TEIJIN PHARMA, published 2021):
Substitutions are numbered along the chain they refer to.

T1: Mutant 2 of human SPNS2 (FLAG tag inserted in extracellular loop 5) (human, UniProt Q8IVW8 1-549)
T1 construct: on HEK293 cells; also called extracellular loop 5 mutant
T1 sequence: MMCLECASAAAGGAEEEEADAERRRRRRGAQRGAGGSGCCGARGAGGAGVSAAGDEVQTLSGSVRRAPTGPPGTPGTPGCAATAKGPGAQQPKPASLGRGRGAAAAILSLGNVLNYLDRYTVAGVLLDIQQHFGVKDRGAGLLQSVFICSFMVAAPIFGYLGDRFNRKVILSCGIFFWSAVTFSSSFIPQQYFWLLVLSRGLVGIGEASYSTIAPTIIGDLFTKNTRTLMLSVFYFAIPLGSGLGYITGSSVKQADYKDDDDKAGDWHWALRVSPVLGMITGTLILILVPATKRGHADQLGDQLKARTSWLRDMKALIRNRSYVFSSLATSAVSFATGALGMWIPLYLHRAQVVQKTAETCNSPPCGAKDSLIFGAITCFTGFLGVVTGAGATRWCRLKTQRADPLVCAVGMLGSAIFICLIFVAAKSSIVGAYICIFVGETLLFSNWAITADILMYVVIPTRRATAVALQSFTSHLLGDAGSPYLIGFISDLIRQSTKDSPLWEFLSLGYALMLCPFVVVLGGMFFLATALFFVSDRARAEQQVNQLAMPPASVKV

T2: Mutant 1 of human SPNS2 (FLAG tag inserted in extracellular loop 1) (human, UniProt Q8IVW8 1-549)
T2 construct: on HEK293 cells; also called extracellular loop 1 mutant
T2 sequence: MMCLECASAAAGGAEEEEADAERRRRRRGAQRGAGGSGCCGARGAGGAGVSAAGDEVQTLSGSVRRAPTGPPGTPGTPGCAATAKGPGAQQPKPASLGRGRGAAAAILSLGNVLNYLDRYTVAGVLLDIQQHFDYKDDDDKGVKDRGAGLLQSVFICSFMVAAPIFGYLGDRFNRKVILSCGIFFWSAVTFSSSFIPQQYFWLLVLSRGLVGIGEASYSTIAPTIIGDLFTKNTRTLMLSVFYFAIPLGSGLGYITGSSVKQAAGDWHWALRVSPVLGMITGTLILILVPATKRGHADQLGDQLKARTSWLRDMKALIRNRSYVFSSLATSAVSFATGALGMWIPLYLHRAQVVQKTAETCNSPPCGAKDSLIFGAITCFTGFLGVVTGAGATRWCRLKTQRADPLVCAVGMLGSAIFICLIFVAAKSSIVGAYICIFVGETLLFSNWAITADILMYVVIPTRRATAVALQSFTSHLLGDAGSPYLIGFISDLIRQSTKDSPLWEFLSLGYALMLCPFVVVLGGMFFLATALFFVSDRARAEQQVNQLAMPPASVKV

T3: Mutant 3 of human SPNS2 (FLAG tag inserted in extracellular loop 7) (human, UniProt Q8IVW8 1-549)
T3 construct: on HEK293 cells; also called extracellular loop 7 mutant
T3 sequence: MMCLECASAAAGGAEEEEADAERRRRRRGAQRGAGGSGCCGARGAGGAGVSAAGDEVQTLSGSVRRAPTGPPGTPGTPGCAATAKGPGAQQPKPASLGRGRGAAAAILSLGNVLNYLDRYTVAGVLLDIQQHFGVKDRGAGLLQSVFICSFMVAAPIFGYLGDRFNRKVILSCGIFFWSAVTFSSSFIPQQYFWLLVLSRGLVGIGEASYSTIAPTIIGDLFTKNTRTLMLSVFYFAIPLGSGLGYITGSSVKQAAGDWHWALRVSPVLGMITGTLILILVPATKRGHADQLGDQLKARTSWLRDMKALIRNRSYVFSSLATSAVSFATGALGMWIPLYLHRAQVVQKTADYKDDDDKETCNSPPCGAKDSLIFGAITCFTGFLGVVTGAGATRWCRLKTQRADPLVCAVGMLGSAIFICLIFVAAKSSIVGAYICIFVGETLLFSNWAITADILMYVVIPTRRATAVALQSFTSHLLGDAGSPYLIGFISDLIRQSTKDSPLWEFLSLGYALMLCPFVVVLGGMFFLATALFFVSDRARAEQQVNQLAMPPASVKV

T4: Mutant 4 of human SPNS2 (FLAG tag inserted in extracellular loop 11) (human, UniProt Q8IVW8 1-549)
T4 construct: on HEK293 cells; also called extracellular loop 11 mutant
T4 sequence: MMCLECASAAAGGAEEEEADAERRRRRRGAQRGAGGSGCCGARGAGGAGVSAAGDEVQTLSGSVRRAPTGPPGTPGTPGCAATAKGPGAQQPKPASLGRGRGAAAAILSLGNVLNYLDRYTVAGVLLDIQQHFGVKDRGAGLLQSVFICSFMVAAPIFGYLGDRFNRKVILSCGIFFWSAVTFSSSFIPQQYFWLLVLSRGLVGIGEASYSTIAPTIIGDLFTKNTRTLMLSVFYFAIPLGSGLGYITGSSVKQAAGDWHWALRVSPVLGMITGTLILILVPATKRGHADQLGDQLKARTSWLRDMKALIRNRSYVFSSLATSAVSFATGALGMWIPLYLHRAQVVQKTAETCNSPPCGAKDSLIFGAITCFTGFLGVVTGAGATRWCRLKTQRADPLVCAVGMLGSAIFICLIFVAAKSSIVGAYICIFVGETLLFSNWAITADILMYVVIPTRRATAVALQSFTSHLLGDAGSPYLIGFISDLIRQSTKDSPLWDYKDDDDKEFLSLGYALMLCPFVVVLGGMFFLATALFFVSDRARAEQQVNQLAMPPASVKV

B1: 83-1110B (antibody, IgG2b, V domains shown)
VH: EVQLQQSGPEFVRPGTSVKFSCKVSGGSITSYFIHFVKQRPGQGLEWIGKIDPEDDSTKYGEKFKNKATLTADTSSNTAFLKLSSLTSEDTAIYFCTTLTGLDYWGQGVMVTVSS
VL: DIQMTQSPPVLSAAVGDRVTLSCKASRSLNKNLDWYQQKHGETPKLLIYHTHNLQTGIPSRFSGSGSDTDYTLTISSLQTEDVATYYCYQYHSGWTFGGGTRLELRR
B2: 50-0704C (antibody, IgG2b, V domains shown)
VH: EVQLVGSGGGLVQPGRSMKLSCEASGFTFSNHYMAWVRQAPTKGLEWVATISTGGGNTYYRDSVKGRFTISRDNARSTLSLQMDSLRSEDTATYYCARQDYSNYMGGFAYWGQGTLVTVSS
VL: QFVLTQPNSVSTNLGSTVKLSCTRSIGNIGNNYVNWYKQYEGRSPTTMIYRDDERPDGVPDRFSGSIDRSSNSALLTINSVQTEDEADYFCQSFSSGIFIFGGGTKLTVL
B3: 89-1207D (antibody, IgG2b, V domains shown)
VH: B2 VH with T78I
VL: B2 VL with S80N, I98M
B4: 18-0211B (antibody, IgG2b, V domains shown)
VH: B2 VH with E1A, K43R, A75T, A97T, S102T
VL: B2 VL with M48L, E86G, K106T
B5: 64-0807A (antibody, IgG2b, V domains shown)
VH: EVQVVESGGGLVQPGRSMKLSCAALGFTFRDYYMAWVRQTPTKGLEWVAAISTGGGNTYYRDSVKGRFTISRDNAKSTLYLQMDSLRSDDTATYYCARNPYGNYFDYWGQGVMVTVSS
VL: QFVLSQPNSVSTNLGSTVKLSCKRSTGNIGSNYVHWYQRHEGRSPTTLIYRDDKRPNGVPDRFSGSIDRSSNSALLTINNVQTEDEADYFCQSYSGGMYLFGGGTKLTVL
B6: 84-1111F (antibody, IgG2b, V domains shown)
VH: B5 VH with Q82K
VL: B5 VL with L48M, K106T
B7: 65-0810G (antibody, IgG2b, V domains shown)
VH: EVHLVESGGGLVQPGRSMKLSCTASGFTFNNYYMAWVRQAPTKGLEWVASISTGGGYTYYRDSVKGRFTISRDNTGNTLYLQMDSLRSEDTATYYCARCWELPYWGQGVMVTVSS
VL: QFVLTQPNSVSTNLGSTVKLSCRRSSGNIGNNYVNWYRQHEGRSPTTMIYRDDTRPDGVPNRFSGSIDRSSNSALLTINNVRPEDEAYYFCQSYSGSIYIFGGGTKLTVL
B8: 80-1104A (antibody, IgG2b, V domains shown)
VH: EVQLVETGGGLVQPGSSLKLSCSTSGFTFSETWMSWVRQAPGKGLEWVGLIKDKNSNYEANYAESVKGRFTISRDDSKRRVYLQMYTLRDQDTATYYCTSHEDFYYYSSYYFDYWGQGVMVTVSS
VL: DIVLTQSPATLSVTPGESVSLSCRASQGISTSIHWYQQKSNESPRLLIKYASQSMSGIPSRFSGSGSGTDFTLRINRVESEDFSVYYCQQSYNLPLTFGSGTKLEIKR
B9: 96-1403F (antibody, IgG2b, V domains shown)
VH: B8 VH with Q13R, S23A, E31D, G49A, Y58S, V66I, R79S, Y86N, S100R, S109G
VL: B8 VL with A9P, K39R, M55I, S56A, T72I, R74S, S91T, N93S, S100P, I106V
B10: 93-1310F (antibody, IgG2b, V domains shown)
VH: B8 VH with S23A, E31D, G49A, Y86F, Q117H
VL: B8 VL with E42G, M55I, S91T, N93S, K103R
B11: 37-0511F (antibody, IgG2b, V domains shown)
VH: EVHLQQSGAALVRPRASVKLSCKVSGDSISRYYVHFVKQRPGQGLEWIGRIDPEDDTTKYSEKFKNRATLTADASSDTASLILSGLTSDDTATYFCSTLTGLDYWGQGVMVTVSS
VL: DIQMTQSPPVLSTSVGDRVTLRCKPSQNVHSKLDWYQQKHGEAPKLLIYYTHNLQTGIPSRFSGSGSGTDYTLTISSLQPEDVATYYCFQYYSGWTFGGGTKLEMKR
B12: 53-0707E (antibody, IgG2b, V domains shown)
VH: B11 VH with H3Q, A10E, A16T, S30T, N66K, R67K, D77N, S80Y, L83F, D89E
VL: B11 VL with P25A

Legend:
Assay in all cases: flow cytometry, FLAG-insertion mutant
[1] = molecular target: T1, Mutant 2 of human SPNS2 (FLAG tag …)
Method: (§1) After the lipofection, the HEK 293 cells cultivated overnight were recovered from the culture dishes, and reacted with a cell staining buffer (BioLegend, 420201) containing an anti-FLAG antibody (Sigma-Aldrich, F1804) and an anti-SPNS2 antibody each in a volume of 20 μg/mL for 30 minutes at room temperature. After washing with a cell staining buffer one time, the anti-FLAG antibody was detected with an anti-mouse IgG-Alexa 647 conjugate antibody, and the anti-SPNS2 antibody was detected with an anti-rat IgG-FITC conjugate antibody with flow cytometer BD LSR Fortessa (Becton Dickinson). The binding ability to each mutant was evaluated with the ratio of the FITC-positive cell rate to the Alexa 647-positive cell rate. In Table 7, symbol (+) indicates a ratio of less than 0.1, symbol (±) indicates a ratio of 0.1 or more and less than 0.5, and symbol (−) indicate a ratio of 0.5 or more.

[2] = molecular target: T2, Mutant 1 of human SPNS2 (FLAG tag …)
Method: as §1

[3] = molecular target: T3, Mutant 3 of human SPNS2 (FLAG tag …)
Method: as §1

[4] = molecular target: T4, Mutant 4 of human SPNS2 (FLAG tag …)
Method: as §1

Binder	FITC+/Alexa 647+ cell rate ratio [1] [ratio]	FITC+/Alexa 647+ cell rate ratio [2] [ratio]	FITC+/Alexa 647+ cell rate ratio [3] [ratio]	FITC+/Alexa 647+ cell rate ratio [4] [ratio]
B1	< 0.1	< 0.1	≥ 0.5	≥ 0.5
B2	< 0.1	< 0.1	≥ 0.5	≥ 0.5
B3	< 0.1	< 0.1	≥ 0.5	≥ 0.5
B4	< 0.1	< 0.1	≥ 0.5	≥ 0.5
B5	< 0.1	< 0.1	≥ 0.5	≥ 0.5
B6	< 0.1	< 0.1	≥ 0.5	≥ 0.5
B7	< 0.1	< 0.1	≥ 0.5	≥ 0.5
B8	≥ 0.5	< 0.1	≥ 0.5	≥ 0.5
B9		< 0.1	≥ 0.5	≥ 0.5
B10	≥ 0.5	< 0.1	≥ 0.5	≥ 0.5
B11	< 0.1	< 0.1		≥ 0.5
B12	< 0.1	< 0.1		≥ 0.5
